# Assays:
# RAW264.7 cells = assay: eCIRP-induced cytokine release in RAW264.7 cells (ELISA of supernatants); type: cell-based, mouse; conditions: RAW264.7, rmCIRP 1 μg/mL, 4 hours
# Procedure: FIG. 2. Effects of MOP peptides on TNFα levels. RAW264.7 macrophages were cultured and treated with either volume-equivalent PBS, recombinant murine (rm) CIRP (eCIRP; 1 μg/mL), or rmCIRP with each respective peptide (10 μg/mL). After 4 hours, cell supernatants were assessed for TNFα levels by ELISA. Experiments were performed 3 times, and all data were used for analysis. Data are expressed as mean±SEM and compared by one-way ANOVA and SNK test. *p<0.05 vs. PBS, #p<0.05 vs. eCIRP.
# FIG. 4. eCIRP-induced inflammation is attenuated by MOP3. RAW264.7 cells were treated according to respective groups: PBS (volume equivalent), rmCIRP (1 μg/mL), or rmCIRP with MOP3 at increasing doses. After 4 hours, cell supernatants were analyzed for TNFα levels by ELISA. […] Data are expressed as mean #SEM and compared by one-way ANOVA and SNK test. *p<0.05 vs. PBS, #p<0.05 vs. eCIRP.
# Computational modeling was used to determine the likely domain of MFG-E8's binding to eCIRP. […] Binding of MOP3 to CIRP was quantified using Surface Plasmon Resonance (SPR) analysis. […] After 1 h, cells were fixed and analyzed for intracellular FITC-rmCIRP by flow cytometry. […] After 4 h, cell culture supernatants were analyzed for inflammatory cytokine, TNFα. […]
# The mouse macrophage cell culture supernatants were analyzed for cytokine levels using ELISA kits (BD Biosciences, CA). […]
# WT mice = assay: Sterile eCIRP-induced inflammation by rmCIRP injection in mice; type: in vivo, mouse; conditions: 4 hours, vs eCIRP alone
# Procedure: FIG. 5A-5B. eCIRP-induced inflammation is attenuated by MOP3. WT mice were treated according to respective groups: PBS (volume equivalent), rmCIRP (5 mg/kg), or MOP3 (10 μg/kg) co-incubated with rmCIRP (5 mg/kg) for 30 mins prior to r.o. injection. After 4 hours, serum was measured for IL-6 (A) and TNFα (B) levels by ELISA. All experiments were performed 3 times, and all data were used for analysis (N=7-10). Data are expressed as mean±SEM and compared by one-way ANOVA and SNK test. *p<0.05 vs. PBS, #p<0.05 vs. eCIRP.
# Adult (8-12 weeks) male, C57BL/6 wild-type (WT) mice (20-30 g) were purchased from Charles River Laboratories. MFG-E8 knockout mice (MFG-E8^−/−) were originally obtained from Dr. Shigekazu Nagata, Osaka University of Japan, and bred following our Institutional Animal Care and Use Committee (IACUC) policies. Age-matched, healthy mice were used in all experiments. Animals were randomly assigned to sham, vehicle, or treatment groups. Concerted effort was made to ensure that a limited number of animals were used in each experiment. […] For the design of in vivo models, sample size calculation was driven by variability, effect size, significance level and power as determined through performance of early feasibility and optimization pilot studies. […]
# The mouse macrophage cell culture supernatants were analyzed for cytokine levels using ELISA kits (BD Biosciences, CA). […] TNF-α and IL-6 levels were measured in cell supernatants by ELISA in accordance with respective manufacturers' instructions (BD Biosciences, CA). Blood was collected, centrifuged at 4,000 RPM for 10 minutes, and sera was separated and analyzed for cytokine levels using ELISA kits (BD Biosciences, CA). TNF-α and IL-6 levels in the serum were measured by ELISA in accordance with respective manufacturers' instructions.
# Serum levels of aspartate transaminase (AST), alanine transaminase (ALT), and lactate dehydrogenase (LDH) were determined using calorimetric enzymatic assays (Pointe Scientific, Canton, MI) according to the manufacturer's instructions.
# [1] = rmCIRP 5 mg/kg co-incubated 30 min with test substance, r.o. injection
molecule,measurement,setting,value
"milk fat globule-epidermal growth factor—factor VIII (protein, listed as Mus musculus) MQVSRVLAALCGMLLCASGLFAASGDFCDSSLCLNGGTCLTGQDNDIYCLCPEGFTGLVCNETERGPCSPNPCYNDAKCLVTLDTQRGDIFTEYICQCPVGYSGIHCETETNYYNLDGEYMFTTAVPNTAVPTPAPTPDLSNNLASRCSTQLGMEGGAIADSQISASSVYMGFMGLQRWGPELARLYRTGIVNAWTASNYDSKPWIQVNLLRKMRVSGVMTQGASRAGRAEYLKTFKVAYSLDGRKFEFIQDESGGDKEFLGNLDNNSLKVNMFNPTLEAQYIKLYPVSCHRGCTLRFELLGCELHGCSEPLGLKNNTIPDSQMSASSSYKTWNLRAFGWYPHLGRLDNQGKINAWTAQSNSAKEWLQVDLGTQRQVTGIITQGARDFGHIQYVASYKVAHSDDGVQWTVYEEQGSSKVFQGNLDNNSHKKNIFEKPFMARYVRVLPVSWHNRITLRLELLGC",IL-6 levels in cell supernatants,RAW264.7 cells; vs eCIRP alone,attenuated these levels in a dose-dependent manner
same,TNFα levels in cell supernatants,RAW264.7 cells; vs rmCIRP alone,attenuated these levels in a dose-dependent manner
same,serum IL-6 levels,WT mice; [1],significantly reduced
same,serum TNFα levels,WT mice; [1],significantly reduced
same,LDH levels (tissue injury),WT mice; rmCIRP 5 mg/kg with rmMFG-E8 40 μg/kg,significantly reduced
